Laboratory results: publication PMC6755124

Test system: C6orf203 mature form (Homo sapiens)
Assay: EMSA
Conditions: 100 nM RNA, 0-2.56 uM protein; EMSA buffer, salt, pH and temperature not given (performed as previously described, ref 19); 100 nM fluorescein-labeled RNA; protein purified in 25 mM Tris-HCl …

Substance mt-tRNAPro has a Kd of 290 nM.
